From IntAct's records for PubMed 17129783

B1: Kinetochore protein ndc-80 (Caenorhabditis elegans), Q17635 (parent)
chain: MFGDRRKTGGLNLNGRASIAITPTKRFTDYTGSTSVRKTDARPSLSQPRVSLFNTKNSSVAPRDVKSLVSLNGSKIYNFLVEYESSDAPSEQLIMKPRGKNDFIACFELIYQHLSKDYEFPRHERIEEEVSQIFKGLGYPYPLKNSYYQPMGSSHGYPHLLDALSWLIDIIRINSAVSEDTQNILFGDFMEQGKAQEKTLNYAWMTSTFRDYTNDRKAAENPSSSYWDDTKHRLRKYFEQSNEFEDMTKTAASALEMLNYECDEIEADKGNEASLKEEISRIRDDIRKAKDYLEQNLHVKQHMEKELAMVKSEQEEKISENEKVQKMVDDLKNKIELQKQIHGLTGKEVRQMNLDNNKDKEVVLEIQSELDRLSKETWKLKDEDFFKEQKSKFIHLAEQIMKILSGLNIQMNLEPLRAPTNERDLKDYWETLNKIWVPEISRQLHQRKLELETEQSRFSNKAVTAEERIQIQSETLCEAKKNEAREERIRRNERDSWKDARKHIEQRYEQLLNEKEVLLKQMKLDGSLEKEIEDETARMSATGEEHIQKRSQLEAGIRQILDLMVVEIAEIENKKIGFHVQCAGIEKAVL
partner: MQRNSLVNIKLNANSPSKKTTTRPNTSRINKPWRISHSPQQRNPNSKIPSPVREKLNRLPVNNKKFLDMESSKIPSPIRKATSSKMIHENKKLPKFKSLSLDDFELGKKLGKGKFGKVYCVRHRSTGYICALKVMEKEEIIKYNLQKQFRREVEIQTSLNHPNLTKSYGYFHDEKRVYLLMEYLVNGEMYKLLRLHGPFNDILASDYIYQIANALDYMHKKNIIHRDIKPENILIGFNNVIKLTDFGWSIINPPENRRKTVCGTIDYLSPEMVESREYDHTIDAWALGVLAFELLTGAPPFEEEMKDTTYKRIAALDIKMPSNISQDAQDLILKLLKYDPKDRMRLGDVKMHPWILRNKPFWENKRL

Variants of: B1
Conditions: with aurk_yeast IPL1, P38991

| Variant | effect of a mutation on the interaction |
| --- | --- |
| MFGDRRKAGGLNLNGRAAIAITPTKRFTDYTGSTSVRKTDARPALSQPRVALFNTKNSSVAPRDVKSLVSLNGSKIYNFLVEYESSDAPSEQLIMKPRGKNDFIACFELIYQHLSKDYEFPRHERIEEEVSQIFKGLGYPYPLKNSYYQPMGSSHGYPHLLDALSWLIDIIRINSAVSEDTQNILFGDFMEQGKAQEKTLNYAWMTSTFRDYTNDRKAAENPSSSYWDDTKHRLRKYFEQSNEFEDMTKTAASALEMLNYECDEIEADKGNEASLKEEISRIRDDIRKAKDYLEQNLHVKQHMEKELAMVKSEQEEKISENEKVQKMVDDLKNKIELQKQIHGLTGKEVRQMNLDNNKDKEVVLEIQSELDRLSKETWKLKDEDFFKEQKSKFIHLAEQIMKILSGLNIQMNLEPLRAPTNERDLKDYWETLNKIWVPEISRQLHQRKLELETEQSRFSNKAVTAEERIQIQSETLCEAKKNEAREERIRRNERDSWKDARKHIEQRYEQLLNEKEVLLKQMKLDGSLEKEIEDETARMSATGEEHIQKRSQLEAGIRQILDLMVVEIAEIENKKIGFHVQCAGIEKAVL [T8A;S18A;S44A;S51A] | disrupting interaction |
